According to paper PMC3928310, “Model of a DNA-Protein Complex of the Architectural Monomeric Protein MC1 from Euryarchaea”:

Tests used:
MC1 WT [1] = biological target: T1, MC1 WT (Methanosarcina thermophila CHTI55, UniProt P12770 1-93); assay: NMR PRE; Mn2+ (EDTA-chelated probe); protein:DNA 1:1.2; EMSA: 10 mM Tris-HCl pH 7.5, 150 mM NaCl, 1 mM EDTA, 15 ug/ml BSA, 8% glycerol, 15 min at 20 C, 0.1 nM DNA, TBE gel; NMR PRE: 10 mM phosphate pH 6, 100 mM NaCl, 10% D2O; conditions: protein: recombinant; label: paramagnetic dT-EDTA-Mn2+; blunt
T1 sequence: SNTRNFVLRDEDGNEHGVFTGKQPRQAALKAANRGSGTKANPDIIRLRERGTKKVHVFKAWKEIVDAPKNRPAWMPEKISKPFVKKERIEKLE

MC1 WT [2] = biological target: T1, MC1 WT; assay: EMSA; EMSA: 10 mM Tris-HCl pH 7.5, 150 mM NaCl, 1 mM EDTA, 15 ug/ml BSA, 8% glycerol, 15 min at 20 C, 0.1 nM DNA, TBE gel; NMR PRE: 10 mM phosphate pH 6, 100 mM NaCl, 10% D2O; conditions: protein: recombinant; label: 5'-32P on one strand; blunt
MC1 WT [3] = biological target: T1, MC1 WT; assay: NMR chemical shift perturbation; EMSA: 10 mM Tris-HCl pH 7.5, 150 mM NaCl, 1 mM EDTA, 15 ug/ml BSA, 8% glycerol, 15 min at 20 C, 0.1 nM DNA, TBE gel; NMR PRE: 10 mM phosphate pH 6, 100 mM NaCl, 10% D2O; conditions: protein: recombinant; blunt

B1: DNA1* (dsDNA)
DNA 1: AAAAACACACACCCA
DNA 2: TGGGTGTGTGTTTTT
modifications: dT-EDTA (Mn2+) at the 5'-terminal T16 of strand 2
- binding result (MC1 WT [1]): binds

B2: 26 bp EMSA duplex (dsDNA)
DNA 1: GCCTCAAAAACACACACCCCCGACAG
DNA 2: CTGTCGGGGGTGTGTGTTTTTGAGGC
- Kd (MC1 WT [2]): 1.2 ± 0.1 nM

B3: 15 bp NMR duplex (dsDNA)
DNA 1: AAAAACACACACCCA
DNA 2: TGGGTGTGTGTTTTT
- binding result (MC1 WT [3]): binds
